Columns and labels:
[1] = target: T1, pentapeptide Gly-Pro-Ala-Met-Lys (C. difficile); assay: crystal structure; monoclinic form, P2_(1), 1.3 Å; 200 mM ammonium phosphate, 22.5% PEG 3350, 291 K; one protein molecule per asymmetric unit; peptide found in the active-site groove; conditions: both partners purified
T1 construct: residues 349 and 350 of CotE of Clostridium difficile; the side chain of residue 5 (Lys) is uncertain in the density; also called GPAMK; pentapeptide ligand; source: derived from the N-terminus of the E. coli-made CotE(349–712) after HRV 3C protease cleavage; co-purified and co-crystallised with the protein

[2] = target: the molecule itself; assay: crystal structure; hexagonal form, P6_(1)22, ∼2.1 Å; protein washed with 2 M guanidine hydrochloride on the Ni column (partially unfolded/refolded), tag then removed; 0.1 M sodium malonate pH 5.5, 13% PEG 3350, C8E5; dimer formed with a crystallographic symmetry mate

B1: CotE(349–712), C-terminal fragment of CotE comprising the GH18 chitinase domain (domain or fragment)
chain: GPAMKTLKDSKKLVRPQITDPYNPIVENANCPDINPIVAEYVLGNPTNVDAQLLDAVIFAFAEIDQSGNLFIPYPRFLNQLLALKGEKPSLKVIVAIGGWGAEGFSDAALTPTSRYNFARQVNQMINEYALDGIDIDWEYPGSSASGITSRPQDRENFTLLLTAIRDVIGDDKWLSVAGTGDRGYINSSAEIDKIAPIIDYFNLMSYDFTAGETGPNGRKHQANLFDSDLSLPGYSVDAMVRNLENAGMPSEKILLGIPFYGRLGATITRTYDELRRDYINKNGYEYRFDNTAQVPYLVKDGDFAMSYDDALSIFLKTQYVLRNCLGGVFSWTSTYDQANILARTMSIGINDPEVLKEELEGIYGQF
notes: CotE spore coat protein (peroxiredoxin-chitinase) of Clostridium difficile, residues 349-712; In the monoclinic crystal the model holds Ile363-Phe712; In the hexagonal crystal the protein is a 3D domain-swapped dimer with an intermolecular Cys376-Cys670 disulfide; also called CotE chitinase domain; chitinase domain of CotE; source: E. coli BL21(DE3), purified (HisTrap, HRV 3C cleavage, second …)
[1]
  binding result: binds
[2]
  stoichiometry N: 2

From publication PMC7278498, “Crystal structures of the GH18 domain of the bifunctional peroxiredoxin–chitinase CotE from Clostridium difficile” (Acta Crystallographica. Section F, Structural Biology …, 2020)
